Laboratory results published in PMC6641633 (ACS Omega, 2018).

Molecular target: the molecule itself
Experiment: dynamic light scattering

Row | Protein | stoichiometry N
1 | truncated hepatitis B virus capsid protein Cp149, wild type (domain or fragment, UniProt P03146 1-149, looked up) MDIDPYKEFGATVELLSFLPSDFFPSVRDLLDTASALYREALESPEHCSPHHTALRQAILCWGELMTLATWVGVNLEDPASRDLVVSYVNTNMGLKFRQLLWFHISCLTFGRETVIEYLVSFGVWIRTPPAYRPPNAPILSTLPETTVV | 2
2 | Cp149-D2N/D4N mutant of the truncated hepatitis B virus capsid protein (domain or fragment, UniProt P03146 1-149, looked up) MNINPYKEFGATVELLSFLPSDFFPSVRDLLDTASALYREALESPEHCSPHHTALRQAILCWGELMTLATWVGVNLEDPASRDLVVSYVNTNMGLKFRQLLWFHISCLTFGRETVIEYLVSFGVWIRTPPAYRPPNAPILSTLPETTVV | 2
